In PMC12245079, “FUS Selectively Facilitates circRNAs Packing into Small Extracellular Vesicles within Hypoxia Neuron”:

Experiments:
Assay in all cases: EMSA; 100 nM probe; 10 mM Tris-HCl pH 8.0, 10 mM NaCl, 25 mM KCl, 1 mM MgCl2, 1 mM DTT, 1 mg/mL tRNA; room temperature 30 min; 4% native acrylamide gel, 1x TBE
FUS polypeptide-1 = FUS polypeptide-1 (UniProt P35637 1-526); details: protein: recombinant; tags: GST fusion (pGEX-4T-1), TEV cleavage described; label: Cy3 (3')
FUS polypeptide-4 = FUS polypeptide-4 (UniProt P35637 280-375); details: protein: recombinant; tags: GST fusion (pGEX-4T-1), TEV cleavage described; label: Cy3 (3')
FUS polypeptide-2 = FUS polypeptide-2 (UniProt P35637 50-400); details: protein: commercial; tags: GST fusion (pGEX-4T-1) described; label: Cy3 (3')
FUS polypeptide-3 = FUS polypeptide-3 (UniProt P35637 1-380); details: protein: recombinant; tags: GST fusion (pGEX-4T-1), TEV cleavage described; label: Cy3 (3')
FUS polypeptide-3, sequence (P35637 1-380): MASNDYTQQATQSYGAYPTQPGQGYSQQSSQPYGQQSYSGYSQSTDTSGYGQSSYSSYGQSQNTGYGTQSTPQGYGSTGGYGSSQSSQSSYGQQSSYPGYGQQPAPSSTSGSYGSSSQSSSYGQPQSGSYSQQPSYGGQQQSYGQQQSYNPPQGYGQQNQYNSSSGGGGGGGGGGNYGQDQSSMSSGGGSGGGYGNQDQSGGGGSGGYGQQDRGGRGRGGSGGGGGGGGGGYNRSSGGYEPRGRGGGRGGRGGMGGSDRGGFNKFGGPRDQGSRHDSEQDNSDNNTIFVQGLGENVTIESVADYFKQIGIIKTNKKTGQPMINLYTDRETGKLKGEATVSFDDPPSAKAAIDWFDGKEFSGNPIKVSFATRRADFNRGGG

FUS polypeptide-1, sequence (P35637 whole entry, the tested form may be a part): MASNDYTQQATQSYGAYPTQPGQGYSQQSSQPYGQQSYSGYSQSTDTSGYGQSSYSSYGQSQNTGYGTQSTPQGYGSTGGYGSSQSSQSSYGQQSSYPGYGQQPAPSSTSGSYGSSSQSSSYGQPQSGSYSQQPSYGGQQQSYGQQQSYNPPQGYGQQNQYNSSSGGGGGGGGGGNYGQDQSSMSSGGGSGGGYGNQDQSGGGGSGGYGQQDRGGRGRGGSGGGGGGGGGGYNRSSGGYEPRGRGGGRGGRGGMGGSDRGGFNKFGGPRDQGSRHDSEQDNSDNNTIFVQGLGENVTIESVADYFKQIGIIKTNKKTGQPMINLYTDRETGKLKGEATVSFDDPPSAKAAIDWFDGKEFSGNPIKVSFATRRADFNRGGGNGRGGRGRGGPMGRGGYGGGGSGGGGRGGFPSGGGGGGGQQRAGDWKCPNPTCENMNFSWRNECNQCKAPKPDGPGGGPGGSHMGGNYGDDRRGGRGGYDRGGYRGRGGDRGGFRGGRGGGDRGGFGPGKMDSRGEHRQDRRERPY
FUS polypeptide-2, sequence (P35637 50-400): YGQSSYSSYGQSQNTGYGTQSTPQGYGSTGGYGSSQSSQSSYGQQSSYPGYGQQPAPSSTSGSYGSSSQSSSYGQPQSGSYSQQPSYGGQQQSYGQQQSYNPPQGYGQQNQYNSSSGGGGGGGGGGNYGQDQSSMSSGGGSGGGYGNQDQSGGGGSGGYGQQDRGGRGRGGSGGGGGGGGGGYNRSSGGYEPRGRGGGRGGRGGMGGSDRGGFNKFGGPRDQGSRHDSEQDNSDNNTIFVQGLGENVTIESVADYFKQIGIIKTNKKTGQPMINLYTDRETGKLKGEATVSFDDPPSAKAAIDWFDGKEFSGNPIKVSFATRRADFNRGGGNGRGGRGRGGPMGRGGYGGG
FUS polypeptide-4, sequence (P35637 280-375): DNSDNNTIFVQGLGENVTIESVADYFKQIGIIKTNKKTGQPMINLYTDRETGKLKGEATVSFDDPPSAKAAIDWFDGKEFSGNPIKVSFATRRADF

UUGUAUUUUGAGCUAGUUUGGUGAC (ssRNA) [GGUG oligo]: binds (FUS polypeptide-1); no binding (FUS polypeptide-4); binds (FUS polypeptide-2). UUGUAUUUUGAGCUAGUUUGGUGAC (ssRNA) [GGUG oligo]: binds (FUS polypeptide-3).
